Experimental data reported in US20200040057A1 (IMMATICS BIOTECHNOLOGIES, published 2020).

Key:
HLA-B*07 [1] = target: HLA-B*07 (human); assay: UV peptide exchange ELISA; ++ = yield >20%
HLA-B*07 [2] = target: HLA-B*07 (human); assay: UV peptide exchange ELISA; + = yield >10%
HLA-A*02:01 = HLA-A*02:01 (human); assay: control peptide-MHC complex on beads, in vitro T-cell priming
Procedure: 800.000 beads/200 μl were coated in 96-well plates in the presence of 4×12.5 ng different biotin-pMHC, washed and 600 ng biotin anti-CD28 were added subsequently in a volume of 200 μl. Stimulations were initiated in 96-well plates by co-incubating 1×10⁶ CD8+ T cells with 2×10⁵ washed coated beads in 200 μl TCM supplemented with 5 ng/ml IL-12 (PromoCell) for 3 days at 37° C. Half of the medium was then exchanged by fresh TCM supplemented with 80 U/ml IL-2 and incubating was continued for four days at 37° C. This stimulation cycle was performed for a total of three times. […] Finally, multimeric analyses were performed by staining the cells with Live/dead near IR dye (Invitrogen, Karlsruhe, Germany), CD8-FITC antibody clone SK1 (BD, Heidelberg, Germany) and fluorescent pMHC multimers. For analysis, a BD LSRII SORP cytometer equipped with appropriate lasers and filters was used. Peptide specific cells were calculated as percentage of total CD8+ cells. Evaluation of multimeric analysis was done using the FlowJo software (Tree Star, Oregon, USA). In vitro priming of specific multimer+CD8+ lymphocytes was detected by comparing to negative control stimulations.

| Binder | peptide exchange yield (HLA-B*07 [1]) [%] | peptide exchange yield (HLA-B*07 [2]) [%] | further results |
| --- | --- | --- | --- |
| KPSAVKDSIY | 20 to 50 | – | – |
| LPKPDLPQLI | – | 10 to 20 | – |
| ALLLRGVTL | 20 to 50 | – | – |
| YLLPAIVHI (Negative control peptide for stimulations; also called 447) [DDX5-001 (YLLPAIVHI from DDX5)] | – | – | binding result (HLA-A*02:01): binds |
| AAHEFGHVL | 20 to 50 | – | – |
| LPASAEPKGTM | 20 to 50 | – | – |
| FLIPRAGWLAGL | 20 to 50 | – | – |
| AQNPAGTAL | – | 10 to 20 | – |
| KPGLPGLK | – | 10 to 20 | – |
| IPFSVDEI | – | 10 to 20 | – |
| KSKQVITLL | – | 10 to 20 | – |
| AVSSHHNVI | 20 to 50 | – | – |
| KATEYVHSL | – | 10 to 20 | – |
| EPNPVEEIF | 20 to 50 | – | – |
| IPLEIQKL | – | 10 to 20 | – |
| IAYPSLREAAL | 20 to 50 | – | – |

Now from value to binder, other results behind:

| peptide exchange yield (HLA-B*07 [1]) [%] | peptide exchange yield (HLA-B*07 [2]) [%] | Binder | further results |
| --- | --- | --- | --- |
| – | 10 to 20 | LPLKFFPII | – |
| – | 10 to 20 | VPLPAGGGTVLT | – |
| 20 to 50 | – | MPEADLKRIF | – |
| 20 to 50 | – | LPLLAGTLLL | – |
| – | 10 to 20 | MLKTTLTAF | – |
| – | 10 to 20 | MPREDAHF | – |
| – | 10 to 20 | YPLQQTNVY | – |
| 20 to 50 | – | TPTRPLPSA | – |
| – | 10 to 20 | LPLQQYKLV | – |
| 20 to 50 | – | TVYGEPRKL | – |
| – | 10 to 20 | SAAARALLP | – |
| 20 to 50 | – | LPPHIFAI | – |
| 20 to 50 | – | LPMPAITWY | – |
